Measured values taken from the supplement of paper PMC10567573.

B1: C8orf76 (parent)
chain: KLAEAYLNLGPALSAALASSQKQH
B2: BTBD10 (parent)
chain: FVYENAKEGARNIRTSERVTLIVD

Variants of: B1
Experiment: protein stability index of a GFP-peptide fusion (GPS, HEK-293T) (PSI 1-6); higher = more stable
Conditions: c terminus: a fixed tail appended
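Further: lentivirally expressed fusions sorted by FACS into six bins by GFP to DsRed ratio, PSI derived from sequencing read proportions per bin multiplied by bin number.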

Variant | protein stability index
KLAEAYLNLGPALSAALASSQWQH | 4.77
KLAEAYLNLGPALSAALASSQCQH | 3.44
KLAEAYLNLGPALSAALASSQGQH | 3.43
KLAEAYLNLGPALSAALASSQTQH | 4.43
KLAEAYLNLGPALSAALASSQNQH | 1.83
KLAEAYLNLGPALSAALASSQYQH | 3.64
KLAEAYLNLGPALSAALASSQMQH | 2.41
KLAEAYLNLGPALSAALASSQFQH | 2.69
KLAEAYLNLGPALSAALASSQQQH | 2.76
KLAEAYLNLGPALSAALASSQRQH | 4.21
KLAEAYLNLGPALSAALASSQHQH | 2.52
KLAEAYLNLGPALSAALASSQPQH | 4.17
KLAEAYLNLGPALSAALASSQIQH | 3.1
KLAEAYLNLGPALSAALASSQSQH | 3.07
KLAEAYLNLGPALSAALASSQLQH | 3.34
KLAEAYLNLGPALSAALASSQDQH | 1.69
KLAEAYLNLGPALSAALASSQAQH | 2.91
KLAEAYLNLGPALSAALASSQEQH | 4.71
KLAEAYLNLGPALSAALASHQKQH | 3.47
KLAEAYLNLGPALSAALASDQKQH | 1.48
KLAEAYLNLGPALSAALASEQKQH | 1.3
KLAEAYLNLGPALSAALASKQKQH | 1.6

Variant | protein stability index
KLAEAYLNLGPALSAALASLQKQH | 3.21
KLAEAYLNLGPALSAALASWQKQH | 3.33
KLAEAYLNLGPALSAALASYQKQH | 2.2
KLAEAYLNLGPALSAALASIQKQH | 4.43
KLAEAYLNLGPALSAALASGQKQH | 2.46
KLAEAYLNLGPALSAALASMQKQH | 2.44
KLAEAYLNLGPALSAALASVQKQH | 3.17
KLAEAYLNLGPALSAALASPQKQH | 2.23
KLAEAYLNLGPALSAALASRQKQH | 2.13
KLAEAYLNLGPALSAALASTQKQH | 1.9
KLAEAYLNLGPALSAALASNQKQH | 2.26
KLAEAYLNLGPALSAALASSQKMH | 2.85
KLAEAYLNLGPALSAALASSQKYH | 2.51
KLAEAYLNLGPALSAALASSQKVH | 2.9
KLAEAYLNLGPALSAALASSQKFH | 2.92
KLAEAYLNLGPALSAALASSQKTH | 2.83
KLAEAYLNLGPALSAALASSQKEH | 3.74
KLAEAYLNLGPALSAALASSQKCH | 2.22
KLAEAYLNLGPALSAALASSQKSH | 2.91
KLAEAYLNLGPALSAALASSQKDH | 1.97
KLAEAYLNLGPALSAALASSQKRH | 2.04
KLAEAYLNLGPALSAALASSQKAH | 3.15

Variant | protein stability index
KLAEAYLNLGPALSAALASSQKWH | 2.43
KLAEAYLNLGPALSAALASSQKLH | 2.86
KLAEAYLNLGPALSAALASSQKIH | 2.73
KLAEAYLNLGPALSAALASSQKNH | 1.99
KLAEAYLNLGPALSAALASSQKHH | 2.74
KLAEAYLNLGPALSAALASSQKPH | 2.57
KLAEAYLNLGPALSAALASSQKKH | 2.07
KLAEAYLNLGPALSAALASSQKQW | 1.9
KLAEAYLNLGPALSAALASSQKQK | 1.76
KLAEAYLNLGPALSAALASSQKQA | 4.29
KLAEAYLNLGPALSAALASSQKQC | 3.67
KLAEAYLNLGPALSAALASSQKQS | 2.83
KLAEAYLNLGPALSAALASSQKQE | 1.47
KLAEAYLNLGPALSAALASSQKQP | 2.62
KLAEAYLNLGPALSAALASSQKQN | 2.29
KLAEAYLNLGPALSAALASSQKQR | 3
KLAEAYLNLGPALSAALASSQKQV | 3.61
KLAEAYLNLGPALSAALASSQKQY | 2.56
KLAEAYLNLGPALSAALASSQKQM | 3.02
KLAEAYLNLGPALSAALASSQKQT | 2.79
KLAEAYLNLGPALSAALASSQKQL | 2.44
KLAEAYLNLGPALSAALASSQKQQ | 3.32

Variant | protein stability index
KLAEAYLNLGPALSAALASSQKQI | 2.4
KLAEAYLNLGPALSAALASSQKQF | 3.48
KLAEAYLNLGPALSAALASSQKQD | 1.67
KLAEAYLNLGPALSAALASSAKQH | 4.28
KLAEAYLNLGPALSAALASSFKQH | 2.97
KLAEAYLNLGPALSAALASSMKQH | 3.44
KLAEAYLNLGPALSAALASSVKQH | 2.99
KLAEAYLNLGPALSAALASSPKQH | 2.18
KLAEAYLNLGPALSAALASSIKQH | 2.71
KLAEAYLNLGPALSAALASSEKQH | 1.78
KLAEAYLNLGPALSAALASSHKQH | 2.42
KLAEAYLNLGPALSAALASSDKQH | 1.97
KLAEAYLNLGPALSAALASSGKQH | 3.38
KLAEAYLNLGPALSAALASSYKQH | 4.14
KLAEAYLNLGPALSAALASSLKQH | 1.8
KLAEAYLNLGPALSAALASSNKQH | 3.31
KLAEAYLNLGPALSAALASSKKQH | 2.1
KLAEAYLNLGPALSAALASSRKQH | 3.07
KLAEAYLNLGPALSAALASSSKQH | 2.38
KLAEAYLNLGPALSAALASSTKQH | 3.01
KLAEAYLNLGPALSAALASSWKQH | 2.31

Variants of: B2
Experiment: as above
Conditions: c terminus: a fixed tail appended

Variant | protein stability index
EVYENAKEGARNIRTSERVTLIVD | 3.94
LVYENAKEGARNIRTSERVTLIVD | 3.05
AVYENAKEGARNIRTSERVTLIVD | 3.21
IVYENAKEGARNIRTSERVTLIVD | 2.71
YVYENAKEGARNIRTSERVTLIVD | 2.27
MVYENAKEGARNIRTSERVTLIVD | 3.78
SVYENAKEGARNIRTSERVTLIVD | 3.23
DVYENAKEGARNIRTSERVTLIVD | 3.29
KVYENAKEGARNIRTSERVTLIVD | 3.28
NVYENAKEGARNIRTSERVTLIVD | 3.75
QVYENAKEGARNIRTSERVTLIVD | 2.9
RVYENAKEGARNIRTSERVTLIVD | 3.3
CVYENAKEGARNIRTSERVTLIVD | 2.5
GVYENAKEGARNIRTSERVTLIVD | 3.33
PVYENAKEGARNIRTSERVTLIVD | 3.46
WVYENAKEGARNIRTSERVTLIVD | 2.55
VVYENAKEGARNIRTSERVTLIVD | 3.7
HVYENAKEGARNIRTSERVTLIVD | 3.69
TVYENAKEGARNIRTSERVTLIVD | 3.06
FVYENHKEGARNIRTSERVTLIVD | 2.1
FVYENFKEGARNIRTSERVTLIVD | 1.8
FVYENDKEGARNIRTSERVTLIVD | 2.67
FVYENEKEGARNIRTSERVTLIVD | 2.8
FVYENCKEGARNIRTSERVTLIVD | 1.82
FVYENGKEGARNIRTSERVTLIVD | 1.97
FVYHNAKEGARNIRTSERVTLIVD | 2.16

Variant | protein stability index
FVYANAKEGARNIRTSERVTLIVD | 1.82
FVYYNAKEGARNIRTSERVTLIVD | 1.92
FVYKNAKEGARNIRTSERVTLIVD | 2.25
FVYFNAKEGARNIRTSERVTLIVD | 1.65
FVYDNAKEGARNIRTSERVTLIVD | 2.08
FVYLNAKEGARNIRTSERVTLIVD | 1.48
FVYGNAKEGARNIRTSERVTLIVD | 1.75
FVYTNAKEGARNIRTSERVTLIVD | 2.18
FVYCNAKEGARNIRTSERVTLIVD | 2.56
FVYWNAKEGARNIRTSERVTLIVD | 1.83
FVYMNAKEGARNIRTSERVTLIVD | 1.91
FVYRNAKEGARNIRTSERVTLIVD | 1.91
FVYVNAKEGARNIRTSERVTLIVD | 2.83
FVYINAKEGARNIRTSERVTLIVD | 2.35
FVYNNAKEGARNIRTSERVTLIVD | 1.57
FVYSNAKEGARNIRTSERVTLIVD | 1.66
FVYPNAKEGARNIRTSERVTLIVD | 1.69
FVYQNAKEGARNIRTSERVTLIVD | 1.94
FVWENAKEGARNIRTSERVTLIVD | 2.19
FVIENAKEGARNIRTSERVTLIVD | 2.26
FVDENAKEGARNIRTSERVTLIVD | 3.22
FVRENAKEGARNIRTSERVTLIVD | 2.73
FVFENAKEGARNIRTSERVTLIVD | 2.12
FVAENAKEGARNIRTSERVTLIVD | 2.08
FVEENAKEGARNIRTSERVTLIVD | 3.75
FVGENAKEGARNIRTSERVTLIVD | 2.35

Variant | protein stability index
FVKENAKEGARNIRTSERVTLIVD | 2.08
FVCENAKEGARNIRTSERVTLIVD | 2.17
FVHENAKEGARNIRTSERVTLIVD | 2.11
FVNENAKEGARNIRTSERVTLIVD | 2.48
FVQENAKEGARNIRTSERVTLIVD | 2.62
FVPENAKEGARNIRTSERVTLIVD | 1.72
FVSENAKEGARNIRTSERVTLIVD | 1.96
FVMENAKEGARNIRTSERVTLIVD | 2.2
FVLENAKEGARNIRTSERVTLIVD | 1.92
FVVENAKEGARNIRTSERVTLIVD | 2.22
FVTENAKEGARNIRTSERVTLIVD | 2.22
FQYENAKEGARNIRTSERVTLIVD | 3.07
FMYENAKEGARNIRTSERVTLIVD | 2.6
FGYENAKEGARNIRTSERVTLIVD | 3.31
FDYENAKEGARNIRTSERVTLIVD | 3.56
FRYENAKEGARNIRTSERVTLIVD | 3.04
FLYENAKEGARNIRTSERVTLIVD | 2.41
FFYENAKEGARNIRTSERVTLIVD | 2.31
FPYENAKEGARNIRTSERVTLIVD | 3.53
FHYENAKEGARNIRTSERVTLIVD | 3.07
FWYENAKEGARNIRTSERVTLIVD | 1.97
FEYENAKEGARNIRTSERVTLIVD | 3.83
FYYENAKEGARNIRTSERVTLIVD | 2.45
FIYENAKEGARNIRTSERVTLIVD | 2.37
FCYENAKEGARNIRTSERVTLIVD | 2.33
FAYENAKEGARNIRTSERVTLIVD | 2.78

Variant | protein stability index
FTYENAKEGARNIRTSERVTLIVD | 3.08
FKYENAKEGARNIRTSERVTLIVD | 3.06
FSYENAKEGARNIRTSERVTLIVD | 3.27
FNYENAKEGARNIRTSERVTLIVD | 3.58
FVYEIAKEGARNIRTSERVTLIVD | 1.61
FVYEPAKEGARNIRTSERVTLIVD | 2.52
FVYELAKEGARNIRTSERVTLIVD | 1.34
FVYEWAKEGARNIRTSERVTLIVD | 3.23
FVYEHAKEGARNIRTSERVTLIVD | 2.19
FVYESAKEGARNIRTSERVTLIVD | 1.54
FVYEFAKEGARNIRTSERVTLIVD | 1.9
FVYEMAKEGARNIRTSERVTLIVD | 1.61
FVYEEAKEGARNIRTSERVTLIVD | 2.35
FVYEAAKEGARNIRTSERVTLIVD | 1.9
FVYECAKEGARNIRTSERVTLIVD | 2.42
FVYEDAKEGARNIRTSERVTLIVD | 2.21
FVYEVAKEGARNIRTSERVTLIVD | 1.63
FVYEGAKEGARNIRTSERVTLIVD | 2.47
FVYEYAKEGARNIRTSERVTLIVD | 1.61
FVYEQAKEGARNIRTSERVTLIVD | 2.64
FVYETAKEGARNIRTSERVTLIVD | 2.25
FVYERAKEGARNIRTSERVTLIVD | 1.95
FVYEKAKEGARNIRTSERVTLIVD | 1.94
